These results are taken from publication PMC2156102.

Experiment [1] concerns the target LexABD-Rac1G12V (fusion of the LexA DNA binding domain with Drosophila Rac1 G12V) (Drosophila) (UniProt P40792). Description: two-hybrid; same fusions; quantification of ß-galactosidase activity in liquid assays on total protein extracts, three measurements.
In experiment [2] the target is LexABD-Rac1G12V (fusion of the LexA DNA binding domain with Drosophila Rac1 G12V) (UniProt P40792). Description: yeast two-hybrid, ß-galactosidase activity in total protein extracts. The settings on record: parent: est. 6.4; read off a plot.

Substance “LbGAPR74A (GAL4 activation domain fusion) (natural protein)” displayed a fold lower interaction (ß-galactosidase activity) than wild-type LbGAP in experiment [1] of 3 fold.
For “GAL4AD-LbGAP (fusion of the GAL4 activation domain with LbGAP) (natural protein)”, the ß-galactosidase activity relative to that of LbGAP with Rac2G12V in experiment [1] worked out at 2 fold.
Take “GAL4AD-LbGAP (fusion of the GAL4 activation domain with LbGAP) R115A”: the response (ß-Galactosidase units) in experiment [2] was determined as 0.34.
On the same count and under the same terms, for “GAL4AD-LbGAP (fusion of the GAL4 activation domain with LbGAP) K111A” the value was 0.38.
In experiment [1], “LbGAPS190A (GAL4 activation domain fusion) (natural protein)” displayed a fold lower interaction (ß-galactosidase activity) than wild-type LbGAP of 3 fold.
